Legend:
Assay in all cases: pull-down binding Z-score (relative to library population); higher = stronger binding
Details in all cases: RNA library: Library-2
[1] = system: TO-3-N3 (biotin conjugate)
Procedure, shortened: (§1)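 An RNA library (1 μg) carrying a Cy5 or Cy3 end label was heat-folded in phosphate/NaCl/KCl buffer, then incubated for 60 min at 25 °C with streptavidin beads loaded with 100 pmol of biotin-conjugated small molecule. The beads were washed three times, and bound RNA was released in hot SDS and hybridised to a DNA barcode microarray for 20 h at 55.5 °C. Each binding score was derived by subtracting the signal from beads without compound, averaging the barcoded replicate probes after removing the highest and lowest, and expressing the result as a Z-score relative to the library mean and standard deviation.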

[2] = system: TO-3-N3-2 (biotin conjugate)
Procedure, shortened: as §1

TO-N3 (biotin conjugate) = system: TO-N3 (biotin conjugate)
Procedure, shortened: as §1

[3] = system: TO-N3-2 (biotin conjugate)
Procedure, shortened: as §1

Row | Sequence | pull-down binding Z-score [1] | pull-down binding Z-score [2] | pull-down binding Z-score (TO-N3 (biotin conjugate)) | pull-down binding Z-score [3]
1 | GACAGCAGAUAUAGUUGUC | 0.607 | 0.368 | 0.331 | -0.0659
2 | ACACAUUCUGACAAAUUCACAGAUGGUGU [SHAPE_invitro_SARS-CoV-2_Motif_350] | -0.577 | -0.395 | -0.471 | 0.264
3 | CGAGUCUCUGAAACUCUACAGAGAUUCG [IAV_invivo_NS1_NEP_8_Motif_12+IAV_invivo_NS1_NEP_8_Motif_12] | -1 | -0.606 | -0.524 | -0.636
4 | GGGUACGACUUUGAAAGGGAGGGAUACUCUCUAGUCGGAAUAGACCC [IAV_invivo_NP_5_Motif_16+IAV_invivo_NP_5_Motif_16] | 0.779 | 0.439 | 0.986 | 0.638
5 | GUUUUCUACAAAGAAAAC | -0.676 | -0.524 | -1.09 | -1.75
6 | UCAGUUGUAAACAUUCAAAAAGAAAUUGA | 0.0975 | 0.407 | 0.0554 | 0.216
7 | CUGUGGGUUUUACACUUAAAAACACAG [DMSMaPseq_invitro_SARS-CoV-2_Motif_239] | -0.233 | -0.131 | -0.32 | -0.754
8 | GCGCUGCCAGAAACUGGCUAGCGC [bulge-U] | 0.183 | -0.328 | -0.0999 | -0.75
9 | GUCUGGUAGUCGGAC [IAV_invivo_NA_6_Motif_1+IAV_invivo_NA_6_Motif_1] | -0.00665 | -0.235 | -0.173 | -0.21
10 | UGGUAUUCUUGCUA | -0.297 | -0.339 | -0.551 | -0.632
11 | CUUCUUGAAAUACUCCAAAAAGAGAAAGUCAACAUCAAUAUUGUUGGUGACUUUAAACUUAAUGAAG | 0.115 | -0.0464 | -0.0282 | -0.596
12 | GCCGGUAGCACACCUUGUAAUGGUGUUGAAGGU [SHAPE_invitro_SARS-CoV-2_Motif_416] | 0.478 | -0.509 | 0.452 | 0.332
13 | UACCUUUUGCUAUGGGUA | -0.317 | -0.454 | -0.582 | -1.26
14 | GUUCGGAUGCUCGAACUGCACCUCAUGGUCAUGUUAUGGUUGAGCUGGUAGCAGAACUCGAAGGCAUUCAGUAC [DMSMaPseq_invitro_SARS-CoV-2_Motif_11] | -0.665 | -0.307 | 0.002 | 1.96
15 | GGGCCACUGCCAGAAGACAAUGAACCAAGUGGUUAUGCCC [IAV_invivo_PB1_2_Motif_5+IAV_invivo_PB1_2_Motif_5] | -0.323 | 0.0011 | 0.0266 | 0.713
16 | UCUGUACCGUCUGCGGUAUGUGGA [DMSMaPseq_invitro_SARS-CoV-2_Motif_240] | -0.562 | -0.475 | -0.694 | 0.111
17 | UGUCUUUCGAUCAAAACCUGGAUUAUCAAAUAGGAUACAUCUGCAGUGGGGUUUUCGGUGACAACCCGCGUCCCGAAGAUGGAACAGGCA | -0.887 | -0.424 | -0.552 | 0.432

Row | Sequence | pull-down binding Z-score [1] | pull-down binding Z-score [2] | pull-down binding Z-score (TO-N3 (biotin conjugate)) | pull-down binding Z-score [3]
18 | CCUGGUCAUGCAGAUCUCAGUGCCAAGGAGGCACAGGAUGUAAUCAUGGAAGUUGUUUUCCCUAACGAAGUGGGAGCCAGG | -0.749 | -0.23 | -0.414 | 0.44
19 | UGGCCGCAAAUUGCACAAUUUGCCCCCA [SHAPE_invitro_SARS-CoV-2_Motif_532] | -0.293 | -0.435 | -0.363 | -0.6
20 | GUGGAUGGUUAUGUUCAC | 0.0943 | -0.266 | -0.236 | -0.628
21 | UGUGUACACACA [SHAPE_invivo_SARS-CoV-2_Motif_249] | 0.252 | -0.496 | 0.0581 | -0.584
22 | GCAGUAUAAUUAAUAACUAAUUACUGU [SARS-CoV-2-Conserved-Structured-36_Interval-120-237_Motif_1] | -0.577 | -0.428 | -1.03 | -1.31
23 | CUUGAACAAUGGAACCUAGUAAUAGGUUUCCUAUUCCUUACAUGGAUUUGUCUUCUACAAUUUGCCUAUGCCAACAGG | -0.5 | -0.181 | -0.466 | -0.374
24 | AUUGUUGUCGCUUCCAAGAAAAGGACGAAGAUGACAAU [DMSMaPseq_invitro_SARS-CoV-2_Motif_245] | 0.287 | -0.272 | -0.00678 | -0.371
25 | AAGUUUGUUCGCAUUCAACCAGGACAGACUU [DMSMaPseq_invitro_SARS-CoV-2_Motif_187] | 1.1 | 0.0441 | 1.09 | -0.349
26 | AUGAGUACGAACUUAUGUACUCAU | -0.0199 | -0.43 | -0.309 | -1.18
27 | UGCUGAGGCUUCUAAGAAGCCUCGGCA | 0.0854 | -0.197 | -0.224 | -1.28
28 | AUUAUGUGUACCUUCCUUACCCAGAUCCAUCAAGAAUCCUAGGGGCCGGCUGUUUUGUAGAUGAUAUCGUAAAAACAGAUGGUACACUUAUGAU [DMSMaPseq_invitro_SARS-CoV-2_Multi_47_ComplexLevel_1] | -0.234 | 0.0322 | 0.0551 | 0.511
29 | GAGGUAAGUAUGAUACUUACCUG [U1snRNP5ss-8] | -0.664 | -0.377 | -0.957 | -1.02
30 | UGUCACAUCAAUCUGACA | -0.221 | -0.268 | -0.416 | -0.472
31 | GGCAGCGAGCC [IAV_invivo_NP_5_Motif_25+IAV_invivo_NP_5_Motif_25] | -0.756 | -0.633 | -1.01 | -0.713
32 | CUCCAGCACGGAG [IAV_invivo_PB2_1_Motif_21+IAV_invivo_PB2_1_Motif_21] | -0.457 | -0.425 | -0.877 | -1.17
33 | ACAUAGCAGUGGUGUUACCCGUGAACUCAUGCGUGAGCUUAACGGAGGGGCAUACACUCGCUAUGU | -0.138 | -0.167 | -0.015 | 0.0437
34 | GGUCAAAUCAAUGAUAUGAUUUUAUC | -0.859 | -0.505 | -1.26 | -1.3

From the supplement of paper PMC11865577
